# Laboratory results from PMC6535718 (2019).
# T1: Bfd (Pseudomonas aeruginosa, UniProt Q9HY80)
# T1 chain: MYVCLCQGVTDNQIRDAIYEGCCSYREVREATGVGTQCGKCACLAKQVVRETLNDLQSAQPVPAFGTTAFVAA
# Target: T1, Bfd
# Assay: SPR
binder,measurement,value
"BfrB (protein, apo-BfrB (heme-free)) not shown",Kd,3.1 µM
